Publication PMC5474753 (Journal of molecular biology, 2016)

Biological target: the molecule itself
Assay: FRET or BRET

B1: full-length FGFR3 C228R mutant (CHO) (receptor)
chain: ESLGTEQRVVGRAAEVPGPEPGQQEQLVFGSGDAVELSCPPPGGGPMGPTVWVKDGTGLVPSERVLVGPQRLQVLNASHEDSGAYSCRQRLTQRVLCHFSVRVTDAPSSGDDEDGEDEAEDTGVDTGAPYWTRPERMDKKLLAVPAANTVRFRCPAAGNPTPSISWLKNGREFRGEHRIGGIKLRHQQWSLVMESVVPSDRGNYTRVVENKFGSIRQTYTLDVLERSPHRPILQAGLPANQTAVLGSDVEFHCKVYSDAQPHIQWLKHVEVNGSKVGPDGTPYVTVLKTAGANTTDKELEVLSLHNVTFEDAGEYTCLAGNSIGFSHHSAWLVVLPAEEELVEADEAGSVYAGILSYGVGFFLFILVVAAVTLCRLRSPPKKGLGSPTVHKISRFPLKRQVSLESNASMSSNTPLVRIARLSSGEGPTLANVSELELPADPKWELSRARLTLGKPLGEGCFGQVVMAEAIGIDKDRAAKPVTVAVKMLKDDATDKDLSDLVSEMEMMKMIGKHKNIINLLGACTQGGPLYVLVEYAAKGNLREFLRARRPPGLDYSFDTCKPPEEQLTFKDLVSCAYQVARGMEYLASQKCIHRDLAARNVLVTEDNVMKIADFGLARDVHNLDYYKKTTNGRLPVKWMAPEALFDRVYTHQSDVWSFGVLLWEIFTLGGSPYPGIPVEELFKLLKEGHRMDKPANCTHDLYMIMRECWHAAPSQRPTFKQLVEDLDRVLTVTSTDEYLDLSAPFEQYSPGGQDTPSSSSSGDDSVFAHDLLPPAPPSSGGSRT
- stoichiometry N: 2
